Measured values reported in US20090041755A1, “Methods and Compositions For PDGF-D Activation and Inhibition” (Ludwig Institute For Cancer Research, priority 2005, published 2009).

How the values were obtained:
[1] = biological target: latent PDGF-CC (Homo sapiens, UniProt Q9NRA1); settings: cited from earlier work
[2] = biological target: chimeric PDGF-C/PDGF-D molecule with CUB domain from PDGF-C and growth factor domain from PDGF-D (UniProt Q9NRA1)
[3] = biological target: chimeric PDGF-D/PDGF-C molecule with CUB domain from PDGF-D and growth factor domain from PDGF-C (UniProt Q9GZP0)
Sequence of chimeric PDGF-D/PDGF-C molecule with CUB domain from PDGF-D and growth factor domain from PDGF-C (Q9GZP0 other isoform, or with tags, fused parts or gaps mutant): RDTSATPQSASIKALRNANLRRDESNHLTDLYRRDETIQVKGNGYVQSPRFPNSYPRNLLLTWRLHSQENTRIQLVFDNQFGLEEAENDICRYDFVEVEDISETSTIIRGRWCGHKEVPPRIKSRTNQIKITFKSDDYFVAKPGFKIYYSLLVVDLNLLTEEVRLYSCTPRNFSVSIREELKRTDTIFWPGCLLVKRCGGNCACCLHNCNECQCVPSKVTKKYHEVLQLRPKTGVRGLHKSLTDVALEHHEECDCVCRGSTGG

Sequence of latent PDGF-CC (Q9NRA1 23-345): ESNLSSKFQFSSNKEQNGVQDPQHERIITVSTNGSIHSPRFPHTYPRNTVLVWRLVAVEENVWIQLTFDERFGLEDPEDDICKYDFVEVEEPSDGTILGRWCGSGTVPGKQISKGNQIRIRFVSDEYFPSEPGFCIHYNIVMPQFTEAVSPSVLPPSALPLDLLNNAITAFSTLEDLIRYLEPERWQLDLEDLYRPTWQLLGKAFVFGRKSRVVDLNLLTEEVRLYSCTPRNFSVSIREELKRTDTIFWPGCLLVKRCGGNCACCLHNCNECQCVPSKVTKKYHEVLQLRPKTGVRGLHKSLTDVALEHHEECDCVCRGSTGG
Sequence of chimeric PDGF-C/PDGF-D molecule with CUB domain from PDGF-C and growth factor domain from PDGF-D (Q9NRA1 whole entry, looked up, change not shown, the tested form may be a part): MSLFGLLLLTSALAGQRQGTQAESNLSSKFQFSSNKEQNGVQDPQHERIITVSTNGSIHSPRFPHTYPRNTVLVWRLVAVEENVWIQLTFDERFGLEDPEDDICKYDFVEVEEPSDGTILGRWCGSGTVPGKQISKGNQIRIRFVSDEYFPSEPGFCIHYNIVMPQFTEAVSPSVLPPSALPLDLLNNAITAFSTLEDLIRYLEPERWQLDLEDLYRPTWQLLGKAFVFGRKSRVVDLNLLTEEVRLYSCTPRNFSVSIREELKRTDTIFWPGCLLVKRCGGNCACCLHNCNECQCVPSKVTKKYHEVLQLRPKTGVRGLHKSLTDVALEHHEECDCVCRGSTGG

| Substance | activation of latent PDGF-CC ([1]; Fredriksson et al. 2004) | substrate specificity of the protease ([1]; PDGF-CC versus PDGF-DD) | proteolytic release of the growth factor domain (co-transfection, SDS-PAGE and immunoblot) [2] | proteolytic release of the growth factor domain (co-transfection, SDS-PAGE and immunoblot) [3] |
| --- | --- | --- | --- | --- |
| tPA: tissue plasminogen activator, specific activator of PDGF-CC | activates latent PDGF-CC | specific for PDGF-CC | – | – |
| urokinase plasminogen activator (uPA) | – | – | Analysis of all the PDGF-D/PDGF-C chimeric molecules revealed that no released growth factor domain could be visualized using specific antibodies | Analysis of all the PDGF-D/PDGF-C chimeric molecules revealed that no released growth factor domain could be visualized using specific antibodies |
